B1: FITC blunt duplex (dsDNA)
DNA 1: CATGATTACGG
DNA 2: CCGTAATCATG
B2: bridged pair, blunt ends (dsDNA)
DNA 1: AGTGAATTCGAGCTCG
DNA 2: CGAGCTCGAATTCACT
DNA 3: CATGATTACGG
DNA 4: CCGTAATCATG

Key:
[1] = target: T1, DNA ligase III beta (LigIII) (Homo sapiens, UniProt P49916-4 1-862); assay: fluorescence anisotropy; stoichiometric titration, 1 LigIII : 2 DNA; 50 mM HEPES-NaOH pH 7.5, 80 mM NaCl, 5 mM MgCl2, 1 mM DTT, 1 mM ATP, 50 ug/ml BSA; anisotropy 25 C (25 nM DNA), TR-FRET room temperature, pull-down 4 C; settings: protein: recombinant; tags: N-terminal His (pQE32); label: 5'-FITC on strand 1; blunt
T1 sequence: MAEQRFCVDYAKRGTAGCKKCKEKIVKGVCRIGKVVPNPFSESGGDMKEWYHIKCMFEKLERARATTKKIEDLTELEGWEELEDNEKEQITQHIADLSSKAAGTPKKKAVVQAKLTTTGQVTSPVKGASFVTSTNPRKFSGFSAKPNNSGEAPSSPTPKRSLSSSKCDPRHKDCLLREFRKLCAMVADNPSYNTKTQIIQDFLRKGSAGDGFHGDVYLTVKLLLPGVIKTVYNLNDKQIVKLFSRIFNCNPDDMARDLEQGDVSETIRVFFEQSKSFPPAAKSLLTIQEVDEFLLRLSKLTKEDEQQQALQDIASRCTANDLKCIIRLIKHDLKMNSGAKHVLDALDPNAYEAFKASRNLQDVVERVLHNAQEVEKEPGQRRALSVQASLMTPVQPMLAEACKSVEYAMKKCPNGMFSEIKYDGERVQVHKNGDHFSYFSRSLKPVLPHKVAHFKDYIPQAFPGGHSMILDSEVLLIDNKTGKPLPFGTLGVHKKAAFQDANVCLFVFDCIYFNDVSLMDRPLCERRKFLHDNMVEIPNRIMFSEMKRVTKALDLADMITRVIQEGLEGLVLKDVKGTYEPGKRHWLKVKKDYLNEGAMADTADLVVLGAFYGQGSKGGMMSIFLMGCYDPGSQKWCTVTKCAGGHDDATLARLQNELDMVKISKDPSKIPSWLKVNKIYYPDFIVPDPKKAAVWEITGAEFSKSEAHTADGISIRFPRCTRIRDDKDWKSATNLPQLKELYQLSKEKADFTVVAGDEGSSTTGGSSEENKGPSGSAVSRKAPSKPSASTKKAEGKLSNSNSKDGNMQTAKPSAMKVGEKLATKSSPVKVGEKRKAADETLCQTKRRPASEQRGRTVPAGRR

[2] = target: T1, DNA ligase III beta (LigIII); assay: TR-FRET; DNA bridging; 5 mM Mg2+, 1 mM ATP; 50 mM HEPES-NaOH pH 7.5, 80 mM NaCl, 5 mM MgCl2, 1 mM DTT, 1 mM ATP, 50 ug/ml BSA; anisotropy 25 C (25 nM DNA), TR-FRET room temperature, pull-down 4 C; settings: protein: recombinant; tags: N-terminal His (pQE32); label: 5'-biotin on S1; 5'-FITC on S3; two blunt duplexes

Binder | binding result [1] | binding result [2]
B1 | binds | 
B2 |  | binds
